# Reference: US20120076796A1 (Ablynx, published 2012)
# Residue numbers refer to the chain shown, from its start.
# T1: Recombinant human Angiopoietin-4 (R&D Systems Cat No 964-AN/CF) (human, UniProt Q9Y264 25-503, limits assumed)
# T1 construct: Bought reagent; also called Ang4
# T1 sequence (looked up): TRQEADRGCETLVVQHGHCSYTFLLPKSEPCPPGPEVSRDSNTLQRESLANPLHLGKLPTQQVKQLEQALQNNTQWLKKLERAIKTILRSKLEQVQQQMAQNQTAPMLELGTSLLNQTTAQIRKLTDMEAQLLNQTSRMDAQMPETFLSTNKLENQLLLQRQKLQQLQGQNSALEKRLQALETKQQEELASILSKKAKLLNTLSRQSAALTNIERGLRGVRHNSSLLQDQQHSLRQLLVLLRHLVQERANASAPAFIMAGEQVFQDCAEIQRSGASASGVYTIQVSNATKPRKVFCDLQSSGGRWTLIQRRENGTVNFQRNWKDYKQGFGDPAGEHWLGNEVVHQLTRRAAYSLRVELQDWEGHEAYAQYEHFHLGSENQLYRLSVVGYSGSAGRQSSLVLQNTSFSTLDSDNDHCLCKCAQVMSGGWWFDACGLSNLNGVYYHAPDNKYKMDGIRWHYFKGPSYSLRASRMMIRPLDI
# T2: Recombinant human Angiopoietin-2 (R&D Systems Cat No 623-AN/CF) (human, UniProt O15123 19-496, limits assumed)
# T2 construct: Bought reagent; also called Ang2; human Ang2
# T2 sequence (looked up): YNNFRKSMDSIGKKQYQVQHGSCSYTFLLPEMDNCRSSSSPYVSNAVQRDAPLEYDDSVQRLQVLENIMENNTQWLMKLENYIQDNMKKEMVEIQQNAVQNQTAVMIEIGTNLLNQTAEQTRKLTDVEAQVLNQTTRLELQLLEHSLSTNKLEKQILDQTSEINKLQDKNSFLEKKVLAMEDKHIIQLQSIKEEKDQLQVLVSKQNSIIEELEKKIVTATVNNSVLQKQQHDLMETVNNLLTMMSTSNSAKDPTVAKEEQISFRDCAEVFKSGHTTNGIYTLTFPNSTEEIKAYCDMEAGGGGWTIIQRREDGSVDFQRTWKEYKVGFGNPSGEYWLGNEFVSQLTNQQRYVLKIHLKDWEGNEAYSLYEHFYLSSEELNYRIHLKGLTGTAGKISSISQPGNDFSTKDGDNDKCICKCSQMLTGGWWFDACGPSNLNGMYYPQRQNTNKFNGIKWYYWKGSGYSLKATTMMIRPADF
# T3: biotinylated rh Ang2 (R&D Systems Cat No BT623, Lot No BNR174091) (human, UniProt O15123 19-496, limits assumed, biotinylated (sites not given))
# T3 construct: Bought reagent; also called biotinylated Ang2
# T3 sequence (looked up): T2 sequence (looked up)
# B1: 169-A12 (VHH)
# VHH: EVQLVESGGGLVQPGGSLRLSCVASGSIRSIIHMGWYRQAPGNERDLVAVIIDSRTTKYSESVKGRFTISRDNAKNTVYLQMNSLKPEDTAVYYCNALALGTDQSSTFDSWGQGTQVTVSS
# notes: Nanobody
# B2: 169-C12 (VHH)
# VHH: B1 VHH with V23A, A40T, L47M, S60A
# notes: Nanobody
# B3: 168-A3 (VHH)
# VHH: EVQLVESGGGLVQPGGSLRLSCAASGFTLSGNWMYWLRQAPGKGLEWISTITPRGLTAYADSVKGRFTISRDIAENTLYLQMNSLKSGDTAVYYCARDKTGERRGQGTQVTVSS
# notes: Nanobody
# B4: 168-E5 (VHH)
# VHH: B3 VHH with G31S, G55D, I73N, G88E, R97K, T100A
# notes: Nanobody
# B5: 168-G3 (VHH)
# VHH: EVQLVESGGGLVQPGGSLRLSCAASGSTLDYYAIGWYRQAPGKEREWVSCISSSNYGITTYADSVKGRFTISRDNAKNTVYLQMNSLKPEDTAIYYCATNTRRKYGRLCDLNADYWGQGTQVTVSS
# notes: Nanobody
# B6: 169-F11 (VHH)
# VHH: EVQLVESGGGLVQPGGSLRLSCATSGFTFSTSWMYWLRQAPGKGLEWVSTITPRGLTDYTNSVKGRFTVSRDNAKNTLYLQMNSLKSEDTAVYYCTKDKNGPPMGQGTQVTVSS
# notes: Nanobody
# B7: 169-A10 (VHH)
# VHH: B6 VHH with T31P, D58E, T60A, V69I, R71K, K97R
# notes: Nanobody
# B8: 169-C8 (VHH)
# VHH: B6 VHH with N61D, V69I, N73S, V92D, K97R
# notes: Nanobody
# B9: 169-B12 (VHH)
# VHH: EVQLVESGGGLVQAGGSLRLSCAASGSIFSINAMGWYRQAPGNQRDLVAAITSGDSTKYADFVKGRFTISRDNAKNTVYLQMNSLKPEDTAVYYCAAELLGKWYWGQGTQVTVSS
# notes: Nanobody
# B10: 169-E12 (VHH)
# VHH: B9 VHH with A33T, S53N, D55G, A60V, F62S, L99S, K102R, Y104G
# notes: Nanobody
# B11: 166-D4 (VHH)
# VHH: EVQLVESGGGLVQAGGSLRLSCVASGRIFTNTAMGWYRQAPGKWRELVATIYSGGSTKYIDSVKGRFIISRDNTRNTVHLQMNSLKPEDTAVYYCNTVGAGSYWGQGAQVTVSS
# notes: Nanobody
# B12: 166-C1 (VHH)
# VHH: EVQLVESGGGLVQAGGSLRLSCAASGFTFGSTTIGWFRQAPGKEREGVSCISTGDGSTYYAESVKGRFTISSDNAKNTVYLQMNSLKPEDTAVYYCALDQAPMWSSWSAPYEYDYWGQGTQVTVSS
# notes: Nanobody
# B13: 166-F8 (VHH)
# VHH: B12 VHH with S31T, G47V, D55G, A61T, S106N
# notes: Nanobody
# B14: 166-D7 (VHH)
# VHH: B12 VHH with G30S, S31D, V48I, K87N, M103L, S106T
# notes: Nanobody
# B15: 166-C10 (VHH)
# VHH: B12 VHH with S31T, Y59N
# notes: Nanobody
# B16: 166-E12 (VHH)
# VHH: B12 VHH with E1K
# notes: Nanobody
# B17: 163-E7 (VHH)
# VHH: EVQLVESGGGLVQPGGSLRLSCAASGFTFSDYSMSWVRQAPGKGLEWVSAISGGGEVTTYADSVKGRFTISRDNAKNTLYLQMSSLKPEDTALYYCAEHLNFYSVSVRSSPTSQGTQVTVSS
# notes: Nanobody
# B18: 163-H8 (VHH)
# VHH: EVQLVESGGGLVQPGGSLRLSCAASGFTFGSNGMRWVRQAPGKGPEWVSSINSDGTSTYYAESVKGRFTISRDNAKNTLYLQMHSLKPEDTAVYYCTTTENPNPRGPGTQVTVSS
# notes: Nanobody
# B19: 163-G8 (VHH)
# VHH: B18 VHH with T58A, Y59F, H84N, E100M, P107Q
# notes: Nanobody
# B20: 163-E9 (VHH)
# VHH: B18 VHH with G16D, E62D, Y80C, H84N, N101D, N103Y, P107Q
# notes: Nanobody; also called Nanobody 163E9; Tie-2 Nanobody 163E9
# B21: 162-F11 (VHH)
# VHH: EVQLVESGGGLVQAGGSLRLSCAASGFTFDDYAIGWFRQAPGKEREGVACISSSDGSTYYADSVKGRFTISSDNAKNTVYLQMNSLKPEDTAVYSCSAGSVAGCIPYYWGQGTQVTVSS
# notes: Nanobody
# B22: 162-H10 (VHH)
# VHH: EVQLVESGGGLVQPGGSLRLSCAASGFTLDDYAVGWFRQAPGKEREGVSCIGSSYGSTYYADSVKGRFTISRDNAKNTVYLQMNSLKPEDTAVYYCAVQGYSGGYYYTCEDSADFGFWGQGTQVTVSS
# notes: Nanobody
# Molecular target: T1, Recombinant human Angiopoietin-4 (R&D …)
# Assay: phage ELISA on coated Ang4: 10 ul monoclonal phage supernatant in 100 ul, anti-M13-HRP, OD 450 nm
row,binding result,Binder
1,binds,B1
2,binds,B2
3,binds,B3
4,binds,B4
5,binds,B5
6,binds,B6
7,binds,B7
8,binds,B8
9,binds,B9
10,binds,B10

# Molecular target: T2, Recombinant human Angiopoietin-2 (R&D …)
# Assay: phage ELISA: 10 ul monoclonal phage supernatant in 100 ul on 0.2 ug/ml coated Ang2, anti-M13-HRP, OD 450 nm
# Description: In order to determine binding specificity to Ang2, the clones are tested in an ELISA binding assay setup, using the monoclonal phage pools. Phage binding to Ang2 (R&D Systems Cat No 623-AN/CF) is tested. Shortly, 0.2 ug/ml Ang2 is immobilized on Maxisorp ELISA plates (Nuns) and free binding sites are blocked using 4% Marvel skimmed milk in PBS. Next, 10 ul of supernatant from the monoclonal phage inductions of the different clones in 100 ul 2% Marvel. PBS are allowed to bind to the immobilized antigen. […] Binding specificity is determined based on OD values compared to controls having received an irrelevant phage or no phage.
row,binding result,Binder
1,binds,B11
2,binds,B12
3,binds,B13
4,binds,B14
5,binds,B15
6,binds,B16

# Molecular target: T3, biotinylated rh Ang2 (R&D Systems Cat …)
# Assay: competition ELISA: 0.05 ug/ml biotinylated Ang2 pre-incubated with 10 ul periplasmic extract, then on coated Tie2/Fc (4 ug/ml); bound Ang2 detected with extravidin-HRP; blocked partner: Tie2/Fc
# Description: Clones tested positive in the Ang2 binding assay are screened for their ability to block Ang2 binding to Tie2/Fc. For this, Nanobody-containing periplasmic extracts (P.E.) are used in an ELISA-based ligand competition setup. In short, 4 ug/ml human Tie2/Fc Chimera (R&D Systems Cat No 313-TI, Lot No BKC06)) is coated in 96 well Maxisorp microliter plates (Nunc) and blocked with 4% Marvel skimmed milk in PBS. In parallel, 0.05 ug/ml biotinylated rh Ang2 (R&D Systems Cat No BT623, Lot No BNR174091) is incubated with 10 ul of periplasmic extract containing nanobody of the different clones in 100 ul 2% Marvel/PBS. After 1 hour, the biotinylated Ang2-Nanobody pre-mixes are incubated 1 hour with the coated receptor. Bound biotinylated. Ang2 is detected using HRP-conjugated extravidin (SIGMA E2886-1mL, 126K4801). Blocking activity is determined as loss of OD signal, as compared to wells where no P.E., or irrelevant P.E., has been added.
row,binding result,Binder
1,binds,B12
2,binds,B13
3,binds,B14
4,binds,B15

# Molecular target: T4, recombinant human Tie2/Fc Chimera (R&D Systems Cat No 313-TI, Lot No BKC06) (human, UniProt Q02763 23-745)
# T4 construct: Bought reagent; also called receptor; not shown: Fc portion of the bought chimera
# T4 sequence (Q02763 23-745, change not shown): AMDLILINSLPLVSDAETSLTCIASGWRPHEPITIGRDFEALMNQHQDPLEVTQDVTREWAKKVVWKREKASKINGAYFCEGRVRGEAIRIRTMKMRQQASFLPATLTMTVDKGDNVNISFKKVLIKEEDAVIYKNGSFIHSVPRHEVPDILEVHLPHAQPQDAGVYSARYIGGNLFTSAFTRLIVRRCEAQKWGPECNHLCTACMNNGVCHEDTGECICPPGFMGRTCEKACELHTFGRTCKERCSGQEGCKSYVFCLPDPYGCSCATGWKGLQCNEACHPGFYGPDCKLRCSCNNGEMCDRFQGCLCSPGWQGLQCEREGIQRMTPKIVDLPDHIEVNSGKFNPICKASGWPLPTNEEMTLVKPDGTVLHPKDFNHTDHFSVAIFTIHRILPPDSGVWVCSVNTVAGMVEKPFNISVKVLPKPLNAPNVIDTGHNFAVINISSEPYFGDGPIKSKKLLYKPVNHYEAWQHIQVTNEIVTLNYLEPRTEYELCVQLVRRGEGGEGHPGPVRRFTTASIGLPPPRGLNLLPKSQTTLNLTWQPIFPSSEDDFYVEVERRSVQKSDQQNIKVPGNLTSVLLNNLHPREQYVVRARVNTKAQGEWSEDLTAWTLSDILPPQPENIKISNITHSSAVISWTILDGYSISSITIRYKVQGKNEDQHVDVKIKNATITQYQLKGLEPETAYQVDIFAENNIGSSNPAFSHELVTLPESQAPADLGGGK
# Assay: competition ELISA: 0.2 ug/ml Tie2/Fc pre-incubated with 10 ul periplasmic extract, then on coated Ang1 (0.75 ug/ml); bound Tie2/Fc detected with anti-human IgG-HRP; blocked ligand: Ang1
# Description: Clones tested positive in the Tie2 binding assay are screened for their ability to block Ang1 binding to Tie2/Fc. For this, Nanobody-containing periplasmic extracts (P.E.) are used in an ELISA-based ligand competition setup. In short, 0.75 ug/ml human Ang1 (R&D Systems Cat No 923-AN/CF Lot No FHWO73091) is coated in 96 well Maxisorp microtiter plates (Nunc) and blocked with 4% Marvel skimmed milk in PBS. In parallel, 0.2 ug/ml Tie2/Fc is incubated with 10 ul of periplasmic extract P.E. containing nanobody of the different clones in 100 ul 2% Marvel/PBS. After 1 hour, the receptor-Nanobody pre-mixes are incubated 1 hour with the coated ligand. Bound Tie2/Fc is detected using HRP-conjugated goat anti-human IgG (Jackson Immunoresearch, Cat #109-035-098). Blocking activity is determined as loss of OD signal, as compared to wells where no P.E., or irrelevant P.E., has been added.
row,binding result,Binder
1,binds,B17
2,binds,B18
3,binds,B19
4,binds,B20
5,binds,B21
6,binds,B22
